Consider 90 variants from IntAct's records for PubMed 29039417.

B1: Protein PTHB1 (Homo sapiens), Q3SYG4 (parent)
chain: MSLFKARDWWSTILGDKEEFDQGCLCLANVDNSGNGQDKIIVGSFMGYLRIFSPHPAKTGDGAQAEDLLLEVDLRDPVLQVEVGKFVSGTEMLHLAVLHSRKLCVYSVSGTLGNVEHGNQCQMKLMYEHNLQRTACNMTYGSFGGVKGRDLICIQSMDGMLMVFEQESYAFGRFLPGFLLPGPLAYSSRTDSFLTVSSCQQVESYKYQVLAFATDADKRQETEQQKLGSGKRLVVDWTLNIGEQALDICIVSFNQSASSVFVLGERNFFCLKDNGQIRFMKKLDWSPSCFLPYCSVSEGTINTLIGNHNNMLHIYQDVTLKWATQLPHIPVAVRVGCLHDLKGVIVTLSDDGHLQCSYLGTDPSLFQAPNVQSRELNYDELDVEMKELQKIIKDVNKSQGVWPMTEREDDLNVSVVVSPNFDSVSQATDVEVGTDLVPSVTVKVTLQNRVILQKAKLSVYVQPPLELTCDQFTFEFMTPDLTRTVSFSVYLKRSYTPSELEGNAVVSYSRPTDRNPDGIPRVIQCKFRLPLKLICLPGQPSKTASHKITIDTNKSPVSLLSLFPGFASQSDDDQVNVMGFHFLGGARITVLASKTSQRYRIQSEQFEDLWLITNELILRLQEYFEKQGVKDFACSFSGSIPLQEYFELIDHHFELRINGEKLEELLSERAVQFRAIQRRLLARFKDKTPAPLQHLDTLLDGTYKQVIALADAVEENQGNLFQSFTRLKSATHLVILLIALWQKLSADQVAILEAAFLPLQEDTQELGWEETVDAAISHLLKTCLSKSSKEQALNLNSQLNIPKDTSQLKKHITLLCDRLSKGGRLCLSTDAAAPQTMVMPGGCTTIPESDLEERSVEQDSTELFTNHRHLTAETPRPEVSPLQGVSE
partner: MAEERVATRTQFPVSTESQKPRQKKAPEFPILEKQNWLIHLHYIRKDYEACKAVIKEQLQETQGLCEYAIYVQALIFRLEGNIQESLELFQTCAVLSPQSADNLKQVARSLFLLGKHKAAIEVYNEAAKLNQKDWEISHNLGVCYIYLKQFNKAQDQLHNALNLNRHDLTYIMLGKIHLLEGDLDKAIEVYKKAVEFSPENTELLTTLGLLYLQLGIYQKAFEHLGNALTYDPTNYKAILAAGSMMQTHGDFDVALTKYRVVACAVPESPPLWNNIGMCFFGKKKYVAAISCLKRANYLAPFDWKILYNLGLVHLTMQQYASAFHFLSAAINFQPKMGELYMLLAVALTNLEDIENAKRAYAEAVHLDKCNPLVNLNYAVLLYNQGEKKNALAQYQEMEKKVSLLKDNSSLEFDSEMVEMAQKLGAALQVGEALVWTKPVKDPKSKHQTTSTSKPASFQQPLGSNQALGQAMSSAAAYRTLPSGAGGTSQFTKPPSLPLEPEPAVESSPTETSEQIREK

The assay covers variants of B1. Particulars: with bbs4_human BBS4, Q96RK4.
As to I519E, the “effect of a mutation on the interaction” value was “with no effect”.
In the case of D435A it was “with no effect”; in that of D435K, “with no effect”.
For the variant E857A, the “effect of a mutation on the interaction” value is recorded as “with no effect”.
On to D480E, for which the “effect of a mutation on the interaction” value is recorded as “with no effect”.
As for T445A, the “effect of a mutation on the interaction” value is “with no effect”.
Y703H: the “effect of a mutation on the interaction” value is “disrupting interaction strength”.
Turning to I649A, the “effect of a mutation on the interaction” value was “with no effect”.
For the variant I649E, the “effect of a mutation on the interaction” value is “with no effect”.
For H867K, the “effect of a mutation on the interaction” value is “with no effect”.
L665K: the “effect of a mutation on the interaction” value was “with no effect”.
For S797A, the “effect of a mutation on the interaction” value is on record as “with no effect”.
To R510E belongs “with no effect”; to N716K, “with no effect”.
To D608E belongs “with no effect”.
To L529A belongs “with no effect”; to S637E, “with no effect”.
Regarding S637K, the “effect of a mutation on the interaction” value is “with no effect”.
Take S787E: the “effect of a mutation on the interaction” value is listed as “with no effect”.
In the case of L662E it was “with no effect”; in that of V485A, “with no effect”; in that of S488A, “with no effect”.
To Q722A belongs “with no effect”; to F566K, “with no effect”.
To Y495K belongs “with no effect”.
As for Y495E, the “effect of a mutation on the interaction” value is reported as “with no effect”.
For R528K, the “effect of a mutation on the interaction” value is “with no effect”.
In the case of I776E it was “with no effect”; in that of Q742K, “with no effect”.
In the case of Q643A, the “effect of a mutation on the interaction” value was “with no effect”.
On to Q643E, for which the “effect of a mutation on the interaction” value is “with no effect”.
In the case of L793K it was “with no effect”.
For the variant V506E, the “effect of a mutation on the interaction” value was “disrupting interaction strength”.
To R726E belongs “with no effect”; to C816K, “with no effect”.
For K781E, the “effect of a mutation on the interaction” value is reported as “with no effect”.
In the case of C843A, the “effect of a mutation on the interaction” value is “with no effect”.
To D410E belongs “with no effect”.
To W741A belongs “with no effect”; to E431K, “with no effect”.
To D850E belongs “with no effect”; to A586E, “with no effect”; to V671R, “disrupting interaction strength”.
Turning to T484E, the “effect of a mutation on the interaction” value is “with no effect”.
In the case of K810E it was “with no effect”; in that of S439K, “with no effect”; in that of E660K, “with no effect”.
In the case of R587T it was “disrupting interaction strength”; in that of K630A, “with no effect”; in that of N515A, “with no effect”.
To V444K belongs “with no effect”.
For the variant A754E, the “effect of a mutation on the interaction” value is reported as “with no effect”.
Take Q835A: the “effect of a mutation on the interaction” value is given as “with no effect”.
Q835E: the “effect of a mutation on the interaction” value is on record as “with no effect”.
With S458A, the “effect of a mutation on the interaction” value is “with no effect”.
Regarding S458K, the “effect of a mutation on the interaction” value is “with no effect”.
As to S507E, the “effect of a mutation on the interaction” value is “with no effect”.
In the case of L740E it was “with no effect”.
To G565E belongs “with no effect”; to S558K, “with no effect”.
A831K: the “effect of a mutation on the interaction” value was “with no effect”.
As for K728R, the “effect of a mutation on the interaction” value is listed as “disrupting interaction strength”.
In the case of K728A, the “effect of a mutation on the interaction” value was “with no effect”.
Turning to A775K, the “effect of a mutation on the interaction” value is listed as “with no effect”.
In the case of R678G it was “disrupting interaction strength”; in that of V417A, “with no effect”.
As for D817A, the “effect of a mutation on the interaction” value is “with no effect”.
Consider E615A, for which the “effect of a mutation on the interaction” value was “with no effect”.
Regarding L814A, the “effect of a mutation on the interaction” value was “with no effect”.
To T771A belongs “with no effect”; to F646A, “with no effect”.
For E761K, the “effect of a mutation on the interaction” value is listed as “with no effect”.
In the case of R449E it was “with no effect”.
In the case of N658A, the “effect of a mutation on the interaction” value was “with no effect”.
In the case of Q705K, the “effect of a mutation on the interaction” value is “with no effect”.
In the case of L780K it was “with no effect”; in that of L780E, “with no effect”; in that of L779K, “with no effect”.
As for T496K, the “effect of a mutation on the interaction” value is “with no effect”.
In the case of D517E it was “with no effect”.
Regarding T865E, the “effect of a mutation on the interaction” value is listed as “with no effect”.
In the case of H581A it was “with no effect”; in that of I735K, “with no effect”.
Turning to F474A, the “effect of a mutation on the interaction” value is listed as “with no effect”.
To A832E belongs “with no effect”.
To S570A belongs “with no effect”; to P540A, “with no effect”.
For P540K, the “effect of a mutation on the interaction” value was “with no effect”.
To N794E belongs “with no effect”; to P881E, “with no effect”.
